Laboratory results: paper PMC5670239, “Structural basis for mutually exclusive co-transcriptional nuclear cap-binding complexes with either NELF-E or ARS2” (Nature Communications, 2017)

How the values were obtained:
m^7GTP-CBCmut = experiment: ITC, binding to mutated CBC in the presence of m^7GTP; design: species or system human; conditions: 25 °C, pH 7.8, CBCmut = CBP20 Y50A + CBP80 Y461A/R610E/H651A, with m^7GTP, mean ± SD of 2 experiments
Method: For CBC, a triple mutant in CBP80 (Y461A/R610E/H651A) was combined with various mutations in CBP20 (Y50A, Y50A/Y89A, or Y50A/Y89A/D107R).
ITC experiments were performed on a MicroCal ITC200 system (Malvern). Proteins were dialyzed overnight in buffer 20 mM HEPES, 120 mM NaCl, 2 mM tris(2-carboxyethyl)phosphine, pH 7.8. Injections of 1.5 µl protein A were added at an interval of 120–180 s into 205 µl of protein B in the cell, with a stirring speed of 800 rpm at 25 °C. The experimental data were analysed with MicroCal ITC Origin and were fitted to a single-site binding equation.

m^7GTP-CBC [1] = target: T1, m^7GTP-CBC (Homo sapiens, UniProt P52298+Q09161); experiment: Fluorescence polarisation with FAM-labelled C-terminal peptides; type: binding; conditions: competition; 40 nM FAM peptide, 60 nM CBC, 25 µM m^7GTP, 25 °C; n = 3
T1 construct: 6-histidine tag (pETM30 vector) (N, cleaved yes); made in house; host or cells: CBP20 in E. coli Rosetta 2; CBP80ΔNLS in High Five insect cells; heterodimer reconstituted on Ni-sepharose
T1 sequence (Q09161 20-790): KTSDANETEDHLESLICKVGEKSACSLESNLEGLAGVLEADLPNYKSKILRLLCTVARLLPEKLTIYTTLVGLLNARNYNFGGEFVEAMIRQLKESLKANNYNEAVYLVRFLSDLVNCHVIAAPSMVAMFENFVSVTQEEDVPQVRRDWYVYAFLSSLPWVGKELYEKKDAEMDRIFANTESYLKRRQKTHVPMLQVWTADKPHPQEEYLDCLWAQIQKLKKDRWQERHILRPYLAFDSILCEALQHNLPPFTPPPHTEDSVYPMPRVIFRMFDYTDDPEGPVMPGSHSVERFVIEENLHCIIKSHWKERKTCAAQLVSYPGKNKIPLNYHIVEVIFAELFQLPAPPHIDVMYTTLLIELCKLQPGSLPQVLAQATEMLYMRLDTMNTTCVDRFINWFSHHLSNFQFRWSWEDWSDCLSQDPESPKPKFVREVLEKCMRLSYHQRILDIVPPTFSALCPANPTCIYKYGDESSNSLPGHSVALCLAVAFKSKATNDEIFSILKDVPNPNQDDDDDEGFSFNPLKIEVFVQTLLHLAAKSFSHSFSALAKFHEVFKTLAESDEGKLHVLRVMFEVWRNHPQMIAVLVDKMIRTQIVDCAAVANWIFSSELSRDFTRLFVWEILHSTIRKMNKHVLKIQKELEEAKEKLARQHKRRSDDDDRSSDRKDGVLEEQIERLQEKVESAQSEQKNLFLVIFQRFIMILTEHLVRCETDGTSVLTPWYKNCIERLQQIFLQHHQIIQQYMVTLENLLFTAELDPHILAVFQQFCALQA
T1 sequence (P52298 1-156): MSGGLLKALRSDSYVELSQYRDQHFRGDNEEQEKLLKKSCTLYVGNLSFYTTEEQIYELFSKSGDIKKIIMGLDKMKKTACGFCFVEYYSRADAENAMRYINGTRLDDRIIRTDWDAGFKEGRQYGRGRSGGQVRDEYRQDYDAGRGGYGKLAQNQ
Method: Fig. 4 Incompatibility of ARS2-PHAX and NELF-E binding to CBC. a, b Competition on m^7GTP-sepharose. a In separate experiments, different amounts of ARS2^147–871 were added to preformed CBC–NELF–E complex immobilised on m^7GTP-sepharose. […] The fluorophore FAM is represented with a star. Note that different constructs of NELF-E and ARS2 were used in c, d, and e compared to f, g, and h and are therefore represented by slightly different shapes. Error bars show the SD of three experiments
Fluorescence anisotropy binding assays were performed with N-terminal FAM-labelled ARS2^845–871 and […] peptides. 40 nM peptides were titrated with increasing concentrations of proteins in 20 mM HEPES, pH 7.8, 120 mM NaCl, 2 mM tris(2-carboxyethyl)phosphine. For the competition assay CBC–ARS2 and CBC–NELF–E complexes were preformed in the presence of 25 µM m^7GTP using 40 nM ARS2^827–871(FAM) peptide together with 60 nM CBC and 40 nM NELF-E^354–380(FAM) peptide with 1 µM CBC. […] To observe a change in polarisation at reasonable protein concentrations, CBC and NELF-E^244–380 concentrations that saturate half of the FAM-labelled peptides were used to preform the individual complexes. Fluorescence polarisation was measured at 25 °C with a microplate reader (CLARIOstar BMG LABTECH) using an excitation wavelength of 495 nm and emission wavelength of 515 nm. For analysis the polarisation value for the peptide alone was subtracted from the measurements.

CBC = target: T2, CBC (Homo sapiens, UniProt P52298); experiment: ITC, binding to CBC without cap analogue; conditions: ITC (MicroCal ITC200), 25 °C, 20 mM HEPES, 120 mM NaCl, 2 mM TCEP, pH 7.8, single-site fit; no cap analogue pre-bound; mean ± SD of at least two independent experiments; SD
T2 sequence (P52298 1-156): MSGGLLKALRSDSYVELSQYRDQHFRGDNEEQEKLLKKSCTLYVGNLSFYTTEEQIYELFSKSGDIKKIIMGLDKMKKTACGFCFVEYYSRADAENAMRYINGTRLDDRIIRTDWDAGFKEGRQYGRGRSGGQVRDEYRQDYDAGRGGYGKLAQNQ
T2 sequence (Q09161 20-790 partner): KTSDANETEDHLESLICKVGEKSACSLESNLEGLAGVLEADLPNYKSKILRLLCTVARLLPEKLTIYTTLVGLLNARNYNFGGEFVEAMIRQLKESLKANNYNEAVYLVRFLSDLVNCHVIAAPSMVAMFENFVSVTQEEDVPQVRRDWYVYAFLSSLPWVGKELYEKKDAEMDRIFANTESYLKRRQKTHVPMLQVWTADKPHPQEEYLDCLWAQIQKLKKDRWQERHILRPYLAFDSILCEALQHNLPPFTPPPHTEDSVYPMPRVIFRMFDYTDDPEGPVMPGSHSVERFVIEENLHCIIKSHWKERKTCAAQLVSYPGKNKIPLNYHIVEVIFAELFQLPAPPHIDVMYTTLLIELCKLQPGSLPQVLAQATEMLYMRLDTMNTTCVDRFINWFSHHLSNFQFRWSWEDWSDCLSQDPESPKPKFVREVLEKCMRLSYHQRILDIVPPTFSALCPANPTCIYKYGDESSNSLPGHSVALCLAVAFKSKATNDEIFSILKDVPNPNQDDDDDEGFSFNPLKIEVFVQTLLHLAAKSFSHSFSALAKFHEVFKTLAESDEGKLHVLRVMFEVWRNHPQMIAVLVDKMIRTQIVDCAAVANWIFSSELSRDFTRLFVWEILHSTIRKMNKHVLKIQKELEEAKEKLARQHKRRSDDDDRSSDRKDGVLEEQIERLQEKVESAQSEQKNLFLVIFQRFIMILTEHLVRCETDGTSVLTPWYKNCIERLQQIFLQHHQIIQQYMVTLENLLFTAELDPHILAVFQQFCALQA
From the text: (§1) hARS2 isoform-4 (871 residues, UniProt:Q9BXP5-4, also known as isoform-e, NP_001122326) constructs (residues 147–871, 147–845, 763–871, 763–845, 827–871) hNELF-E (NM_002904.5) (244–380, 244–360) and hPHAX (NM_032177.3) (1–394, 103–294, 103–308, 103–327) were cloned into pETM11 (EMBL). Full-length hNELF-E (1–380) was cloned into pFASTBac and CBP20 into pETM30. Primers used are given in Supplementary Table 2. All constructs were expressed in E. coli Rosetta 2 (Novagen), except full-length NELF-E and CBP80ΔNLS (CBP80 with residues 1–19 deleted[2]), which were expressed in High Five insect cells (Life Technology). Cells were harvested and lysed by sonication in lysis buffer containing 50 mM HEPES, pH 7.8, 300 mM NaCl, 10% (v/v) glycerol, 5 mM β-mercaptoethanol. Lysates were clarified by centrifugation and applied on an equilibrated Ni-sepharose column (GE Healthcare), washed with 20 mM imidazole in lysis buffer, and eluted with 300 mM imidazole in lysis buffer. While dialysing into 20 mM HEPES, pH 7.8, 120 mM NaCl, 10% (v/v) glycerol, 5 mM β-mercaptoethanol, the N-terminal 6-histidine-tag was cleaved with His-tagged Tobacco Etch Virus (TEV) protease overnight in a ratio 1:100 mg TEV per mg protein. The cleaved protein was further purified first on Ni-sepharose to remove TEV and then using an anion exchange column (HiTrap Q, GE Healthcare) followed if necessary by a Heparin column (GE Healthcare). In both cases a NaCl gradient from 50 to 800 mM in 20 mM HEPES 7.8, 0.5 mM tris(2-carboxyethyl)phosphine was used. To reconstitute the CBC heterodimer, cleared His-tagged CBP20 lysate was first immobilised on a Ni-sepharose column. After washing the column with lysis buffer, the cleared CBP80 lysate was applied to the column and further purification steps performed as described above. To remove the access of CBP20 the flow through of the Ni-column after TEV cleavage was loaded on an anion exchange column (HiTrap Q, GE Healthcare) and CBC eluted by a NaCl gradient as described above. In the text we refer to CBP80ΔNLS and CBP80ΔNLS-CBP20 as CBP80 and CBC, respectively. ARS2^845–871, NELF-E^354–380, and NELF-E^360–380 peptides, with or without FAM label at the N-terminus, were purchased from GenScript.

m^7GTP-CBC [2] = target: T1, m^7GTP-CBC; experiment: ITC, binding to CBC in the presence of the cap analogue m^7GTP; conditions: for Kd: ITC, 25 °C, 20 mM HEPES, 120 mM NaCl, 2 mM TCEP, pH 7.8, CBC bound to m^7GTP, mean ± SD of at least two independent experiments
From the text: as §1

- K D (m^7GTP-CBCmut): completely abolished binding
- Change of polarisation on titration to m^7GTP-CBC-ARS2^845–871(FAM) (m^7GTP-CBC [1]): decrease in polarisation
- Kd (CBC): 400 ± 200 nM
- Kd (m^7GTP-CBC [2]): ~40 nM
- Kd (m^7GTP-CBC [2]; SD): 50 ± 10 nM
- Enhancement of the interaction with CBC when m^7GTP is bound (m^7GTP-CBC [2]; ratio of ITC K D without / with m^7GTP): eight times higher
B1: NELF-E 244–380: C-terminal human NELF-E fragment including the RRM domain, E. coli expressed (protein, UniProt P18615 244-380, looked up, fragment)
chain: GPFRRSDSFPERRAPRKGNTLYVYGEDMTPTLLRGAFSPFGNIIDLSMDPPRNCAFVTYEKMESADQAVAELNGTQVESVQLKVNIARKQPMLDAATGKSVWGSLAVQNSPKGCHRDKRTQIVYSDDVYKENLVDGF
